Kd data for four substances are collected here from publication PMC5718816.

The test has as its target IgG-CD4 fusion protein (human) (UniProt P01730). The test can be described thus: BLI. In general terms: BLI is a label-free optical method that tracks binding on a fibre tip over time.
The substance “recombinant consensus gp120 of HIV-1 CRF01_AE” had a Kd of 0.0184 µM.
Take “recombinant gp120 of HIV-1 92UG037.8 (subtype A) (natural protein)”: the Kd turned out to be 0.00256 µM.
The figure for “recombinant gp120 of HIV-1 93MW965.26 (subtype C) (natural protein)” is 0.112 µM.
Next, “recombinant gp120 of HIV-1 JR-FL (subtype B) (natural protein)”: 0.0064 µM.

For orientation: Kd means the constant that tells how readily two partners part at equilibrium.
